Tests used:
[1] = target: human atypical chemokine receptor 3 (ACKR3) (human) (UniProt P25106); assay: cell-based or functional assay
[2] = target: human atypical chemokine receptor 3 (ACKR3) (human) (UniProt P25106); assay: binding competition with CXCL12-AF647, flow cytometry

human atypical chemokine receptor 3 (ACKR3) (human), sequence (P25106 whole entry): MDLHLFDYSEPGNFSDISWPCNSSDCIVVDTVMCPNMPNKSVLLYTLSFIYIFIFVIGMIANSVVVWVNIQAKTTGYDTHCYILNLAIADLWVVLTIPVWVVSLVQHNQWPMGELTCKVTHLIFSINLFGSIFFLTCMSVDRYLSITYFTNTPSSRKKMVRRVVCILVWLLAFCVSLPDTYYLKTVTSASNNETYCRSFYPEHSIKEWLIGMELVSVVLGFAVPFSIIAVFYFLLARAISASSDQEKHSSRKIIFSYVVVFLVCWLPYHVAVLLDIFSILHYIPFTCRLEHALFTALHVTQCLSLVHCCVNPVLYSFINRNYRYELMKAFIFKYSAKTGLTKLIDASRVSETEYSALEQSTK

Substance	EC50, β-arrestin recruitment (NanoBiT) [1] [nM]	IC50 [2] [nM]
CXCL11 (C-X-C motif chemokine 11) (from UniProt O14625 22-94) (ligand)	2.2	–
nociceptin 1-13 amide	–	> 10000

— US20220236279A1
